Biological target: the molecule itself
Assay: SEC

B1: FLAG-tagged Regnase-1, full-length, phosphorylated (Expi293F, coexpressed with Myc-Act1 and HA-TBK1 or HA-IKKi) (natural protein, UniProt Q5D1E7 1-596, looked up)
chain: MSDPCGTKPVQESNPTMSLWSLEDRHSSQGRPQPDQDPVAKEAPTSELQMKVDFFRKLGYSSSEIHSVLQKLGVQADTNTVLGELVKHGSATERECQALTAPSPQPPLVPRGGSTPKPSTLEPSLPEEDREGSDLRPVVIDGSNVAMSHGNKEVFSCRGILLAVNWFLERGHTDITVFVPSWRKEQPRPDVPITDQHILRELEKKKILVFTPSRRVGGKRVVCYDDRFIVKLAFESDGVVVSNDTYRDLQGERQEWKRFIEERLLMYSFVNDKFMPPDDPLGRHGPSLDNFLRKKPLPSEHRKQPCPYGKKCTYGIKCRFFHPERPSRPQRSVADELRANALLSPPRTPVKDKSSQRPSPASQSSSVSLEAEPGSLDGKKLGARSSPGPHREGSPQTCAPAGRSLPVSGGSFGPTEWLAHTQDSLPYTSQECLDSGIGSLESQMSELWGVRGGSPGESGPTRGPYAGYHSYGSKVPAAPSFSPFRPAMGAGHFSVPTDYVPPPPTYPSREYWSEPYPLPPPTPVLQEPQRPSPGAGGGPWGRVGDLAKERAGVYTKLCGVFPPHLVEAVMRRFPQLLDPQQLAAEILSYKSQHLSE
modifications: phosphorylated by coexpression with Act1 and TBK1 or IKKi; phosphorylation sites identified: Ser439, Ser494, Thr505, Ser508, Ser513
stoichiometry N: 3
